Results as given in the supplement of paper PMC9170038.

System: MS2 coat protein
Assay: apparent KD of MS2 coat protein; designed switch direction (-1 OFF switch, 1 ON switch): -1; higher = weaker reporter binding
Procedure, shortened: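 On Illumina chips, designed RNA switches with common flanks were made by stalled E. coli RNA polymerase. Titrations with SNAP-549-labelled MS2 coat protein, doubling from 0.7 or 1.5 nM to 3 µM, were done with no input, with 200 uM small-molecule ligand, or with an oligonucleotide input. Apparent KD is the median per design over clusters, from curve fits of normalised cluster fluorescence.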

[1] = Eterna round: R95, input ligand: microRNA oligo, concentration not stated
[2] = Eterna round: R95, input ligand: FMN 200 uM
[3] = Eterna round: R95, input ligand: none
[4] = input ligand: microRNA oligo, concentration not stated

Sequence	apparent KD of MS2 coat protein (input ligand: FMN 200 uM) [nM]	apparent KD of MS2 coat protein (input ligand: none) [nM]	apparent KD of MS2 coat protein [1] [nM]	apparent KD of MS2 coat protein [2] [nM]	apparent KD of MS2 coat protein [3] [nM]	apparent KD of MS2 coat protein [4] [nM]
UCCUUAUCGGUCAGGAUAUACACCCGUUUCUCCUUGUAGAAGGGACAUGAGGAUCACCCAUGUACAGUACAUUU [alecazam66] (Eterna round: R97, puzzle: Brourd's mod of Exclusion 4)	29.6	26.8	–	–	–	–
AGUCGAAAGAUCCACAUGGACAUGAGGAUCACCCAUGUGCAAGCCUUUUUCUCGUCACUAUCGUCAAAAGACGAUAG [Omei Mir Offv1 A6] (Eterna round: R97, puzzle: Sensor, turn-off variant 1)	185	234	–	–	–	–
UAUACACAUGAGGAUCACCCAUGUGAGGAUAUGUACAACAACCCGACGGUGUUGUUGUACAGAAGGCACAAAUA [JR_Exclusion1_Sub027] (puzzle: Exclusion 1)	–	–	78.9	–	–	–
UUUAAUUUUUUUUUUUUACAAGCUUUUUGCUCGUCUUAUACAUGAGGAUCACCCAUGUGAAUGAGGGAUAAAUUAUC [JMF 39] (puzzle: Sensor v3, turn-off variant 2)	–	–	14.3	13.5	11.9	–
CGGAGCAGAGGGAGAUCCAACAUGAGGAUCACCCAUGUCUCACAAGCUUUUUGCUCAUCUUAUUGUACCUUGGUGCU [JL ViennaUCT Edcesobi mod 6] (puzzle: Sensor v3, turn-off variant 1)	–	–	10.1	40.5	46.8	–
AAGAAGAUCAAAGGAUAUGGAGCUGAAACGGAGCUAGAAGGUUGUCUAGUUUAACAUGAGGAUCACCCAUGUAGGUACCUCUAA [AK ExNG1-V2-1] (Eterna round: R96, puzzle: Exclusion NG 1)	850	713	–	–	–	719
UCGAGGUCAGGAUAUACAUGAGGAUCACCCAUGUGGAAGUAAGGUAGGAGAAGAGUAGGUAGAAGGGACGAGAG [JR_Exclu3_Sub050] (puzzle: Exclusion 3)	–	–	30.8	–	–	–
GGUGCUGGCGCGUCGGUGUUGGUGCAAUAAGCUUGUGAAACAUGAGGAUCACCCAUGUCCUCGUGGGCUCGUCUUGU [salish99_TOv2_r2_090] (puzzle: Sensor v3, turn-off variant 2)	–	–	12.5	480	434	–
AGGGAUAAAGGAUAUACAUGAGGAUCACCCAUGUUGAGGAAAGUUAGAUGAGGAGGAAGUAGAAGGUUAGGCGA [JR_Exclu3_Sub086] (puzzle: Exclusion 3)	–	–	31.7	31.1	40.4	–
CUUGUCCGAGGAUAUAUUAUGUGAUACAUGAGGAUCACCCAUGUUAUAUGAUGGAUAUAAAUAGAAGGCGGACGAG [Mat - Exclusion 5 - JL mod - D68] (puzzle: Exclusion 5)	–	–	46.7	70.2	47.3	–
GUAAUACAUGAGGAUCACCCAUGUUAGGAUAUCUGCAGGACGUCUCCCGUAUAUCCGUAGAGAAGGGACAGUGG [Eternabot (L1) Solution 20] (Eterna round: R97, puzzle: Exclusion 1)	43	33.6	–	–	–	–
UUUUUAAAUGAAGGAUAUACUUAACAUGAGGAUCACCCAUGUGGUGUUGUGAGUGAGUGAGUUUAGUAGAAGGUCAAUUCUUUU [JMF's solution 86] (Eterna round: R96, puzzle: Exclusion NG 2)	619	334	–	–	–	300
AAUUUACAUGAGGAUCACCCAUGUGAGGAUAUAUAUAUAUAUUUGUUAUUGUAUGUUUGUAGAAGGCGCGUGAU [JR_Exc1_Sub033] (Eterna round: R97, puzzle: Exclusion 1)	33	39.2	–	–	–	–
GCAAAAUAUCAGGAUAUGACUUUUUGCGUUAAGUCAGAAGGGAUAACAUGAGGAUCACCCAUGUGAUAUAGUGU [JR_Ex6_Sub031] (Eterna round: R97, puzzle: Exclusion 6)	261	177	–	–	–	–
GGAUGUUAGGAGGAUAUCUGACGUCGAAAAGAAGGAGAAGGCCUGACAUGAGGAUCACCCAUGUGGUCAAAAGA [Eresinbi] (puzzle: Exclusion 6)	–	–	110	1200	97.8	–
AAAAGCAAGUAAAGAUUCUACAUGAGGAUCACCCAUGUGCUCGUCUUAUAAAGUACUAUCACGAAAGUGAUAGUACA [Sensor 3, v1 - 43] (puzzle: Sensor v3, turn-off variant 1)	–	–	124	19.4	17.6	–
